Here are results for two molecules from publication PMC7192620.

As a reminder, the Kd is the constant that tells how readily two partners part at equilibrium. High values mean weaker binding, low ones tighter binding.

Series [1] deals with YBX1 (YB-1) (UniProt P67809 1-324). Description: ELONA titration.
Series [2] concerns the target T1, RBM3 (UniProt P98179 1-157).
T1 sequence: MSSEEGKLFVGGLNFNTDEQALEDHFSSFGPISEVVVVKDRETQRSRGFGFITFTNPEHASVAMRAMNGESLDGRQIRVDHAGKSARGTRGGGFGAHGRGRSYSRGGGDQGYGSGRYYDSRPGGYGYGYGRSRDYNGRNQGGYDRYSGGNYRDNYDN
Description: ELONA titration.

YBX1 (YB-1), sequence (P67809 whole entry): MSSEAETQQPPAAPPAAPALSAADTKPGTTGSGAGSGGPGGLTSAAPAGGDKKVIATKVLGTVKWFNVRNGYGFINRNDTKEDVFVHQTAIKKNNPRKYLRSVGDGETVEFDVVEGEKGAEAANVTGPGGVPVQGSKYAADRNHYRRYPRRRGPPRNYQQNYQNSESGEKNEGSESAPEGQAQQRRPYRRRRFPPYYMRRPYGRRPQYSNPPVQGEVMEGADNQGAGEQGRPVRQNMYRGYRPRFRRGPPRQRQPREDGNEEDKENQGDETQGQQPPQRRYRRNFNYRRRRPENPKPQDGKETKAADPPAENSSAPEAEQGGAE

B1: Sequence 7 (ssDNA)
DNA: CTAGCATGACTGCAGTACGTTACTTAATTGGGGGGGGGGATTCTGTTTTGTCTCTCTGTCTCTTATACACATCTGACGCTGCCGACGA
modifications: 5' biotin (5Biosg)
Turning to B1, the Kd in series [1] is approximately 3 nM.

B2: Sequence 7 RC (ssDNA)
DNA: TCGTCGGCAGCGTCAGATGTGTATAAGAGACAGAGAGACAAAACAGAATCCCCCCCCCCAATTAAGTAACGTACTGCAGTCATGCTAG
modifications: 5' biotin (5Biosg)
Regarding B2, the binding result in series [2] is on record as “no binding”.
